Data on 36 sequences can be found in the supplement of paper PMC10567573.

± gives the standard deviation.

This series in a line: protein stability index of a GFP-peptide fusion (GPS, HEK-293T) (PSI 1-6); higher = more stable. As to conditions: c terminus: a fixed tail appended.
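Also: 24-mer peptide tiles fused after GFP, lentivirally expressed, FACS-sorted into six equal bins by GFP/DsRed ratio, decoded by Illumina sequencing, PSI is the read-weighted mean bin number.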

As for KKNSSPPLSLYGQLLWREFFYTAA [CRY1], the protein stability index by setting is: (treatment: DMSO) 2.42 ± 0.46; (treatment: MLN4924 1 uM, 8 h) 2.67 ± 0.63.
For the sequence KKRTEQEETIASLQMEVCRLKKEE [CEP70], the protein stability index amounted to 5.22 ± 0.2 (treatment: DMSO) and 5.19 ± 0.38 (treatment: MLN4924 1 uM, 8 h).
In the case of KLDLWSFLDIPRSRLVKYPLLLKE [NET1], the protein stability index is, setting by setting: (treatment: DMSO) 2.21 ± 0.52; (treatment: MLN4924 1 uM, 8 h) 1.94 ± 0.47.
The corresponding values for KLKNTVTIQQEKLLAEKEEKLQKE [SASS6] are 5.1 ± 0.46 and 5.2 ± 0.31.
Take KLSPLRDRLVVTECQLTHSHPACP [ZSWIM9]: the protein stability index runs as follows: (treatment: DMSO) 3.56 ± 0.38; (treatment: MLN4924 1 uM, 8 h) 3.55 ± 0.27.
For KLVHFLLLKYRAREPVTKAEMLGS [MAGEA6], in that order: 2.81 ± 0.48 and 2.78 ± 1.3.
The corresponding values for KLWDPVDGSVVRDFEHRPKAPVVE [WDR88] are 4.08 ± 0.23 and 4.23 ± 0.2.
The corresponding values for KLWNPRNFKAHVSPHEMLQAVVLC [USP39] are 2.63 ± 0.57 and 2.88 ± 0.47.
Consider KMDFKTNILLKNLVTIARKASLWQ [TRIM43], for which the protein stability index is, setting by setting: (treatment: DMSO) 2.7 ± 0.49; (treatment: MLN4924 1 uM, 8 h) 2.62 ± 0.92.
As to KMIMDTAGNDPYCFVEFHEHRHAA [TIA1], the protein stability index runs as follows: (treatment: DMSO) 3.28 ± 0.17; (treatment: MLN4924 1 uM, 8 h) 3.26 ± 0.29.
With KMTPVKNYQAHQSRVTMILFVLEL [WDFY2], the protein stability index runs as follows: (treatment: DMSO) 3.19 ± 0.39; (treatment: MLN4924 1 uM, 8 h) 2.88 ± 0.5.
For KPILLQRMEGSQEVVNMAVIVPKE [WDFY2], in that order: 3.7 ± 0.09 and 3.54 ± 0.4.
In the case of KPQAPQKLDPTLSSCFFIESCGAQ, the protein stability index came to 3.35 ± 0.28 (treatment: DMSO) and 3.15 ± 0.21 (treatment: MLN4924 1 uM, 8 h).
Take KPYECNECGKAFSQSSYLSQHRRI [ZNF232]: the protein stability index reads like this: (treatment: DMSO) 2.32 ± 0.073; (treatment: MLN4924 1 uM, 8 h) 2.44 ± 0.32.
In the case of KQCIVAHPVNPPYYIPLVELVPHP [CRYL1], the protein stability index is, setting by setting: (treatment: DMSO) 2.33 ± 0.17; (treatment: MLN4924 1 uM, 8 h) 2.47 ± 0.32.
For KQEENDVVEKLNLFLDLLQSYKDL [SNX8], in that order: 1.95 ± 0.29 and 2.12 ± 0.31.
The corresponding values for KQILDGVHYLHSKRIAHFDLKPEN [DAPK3] are 2.91 ± 0.18 and 3.19 ± 0.26.
The corresponding values for KQLLSNKELILDKVYTHPKWNTQT [ZC2HC1C] are 2.79 ± 0.14 and 3.15 ± 0.23.
Take KQVCKIAALHGLEETKKLANKYLV [KLHL14]: the protein stability index is, setting by setting: (treatment: DMSO) 2.03 ± 0.31; (treatment: MLN4924 1 uM, 8 h) 2.35 ± 0.32.
In the case of KQYQQRAFGWFRCSSCQRSWASAQ [RTP4], the protein stability index reads like this: (treatment: DMSO) 2.39 ± 0.34; (treatment: MLN4924 1 uM, 8 h) 2.25 ± 0.54.
For KRIEAEEAIKGLNGQKPLGAAEPI [ELAVL3], the protein stability index runs as follows: (treatment: DMSO) 4.77 ± 0.16; (treatment: MLN4924 1 uM, 8 h) 4.951 ± 0.042.
The corresponding values for KRKEEECSTTDHPYKKPYMETSPS [TBX5] are 5.09 ± 0.22 and 5.02 ± 0.18.
For KSNNRLKSLSIQYLELDRLVWRNS [FBXO39], in that order: 2.38 ± 0.18 and 2.4 ± 0.3.
Regarding KSPDNEDSGDSKDIRLTLMEEVLL [GOLPH3L], the protein stability index (treatment: DMSO) was found to be 3.82 ± 0.3 and the protein stability index (treatment: MLN4924 1 uM, 8 h) stood at 4.07 ± 0.19.
With KSQTACLPFVLAAAVSRKKKRRMG [EHMT1], the protein stability index turned out to be 3.38 ± 0.31 (treatment: DMSO) and 3.61 ± 0.3 (treatment: MLN4924 1 uM, 8 h).
Regarding KSSSVDSELTSLCQSVLEDFNLCL [SMG5], the protein stability index runs as follows: (treatment: DMSO) 2.95 ± 0.25; (treatment: MLN4924 1 uM, 8 h) 2.97 ± 0.3.
For the sequence KSTMDAISAEGFTDIDIDTLCAVL [BTBD1], the protein stability index was found to be 2.21 ± 0.22 (treatment: DMSO) and 2.33 ± 0.3 (treatment: MLN4924 1 uM, 8 h).
The corresponding values for KTEITDLRRTMQELEIELQSQLSM [KRT15] are 3.79 ± 0.39 and 3.5 ± 0.24.
The corresponding values for KTGILILILSIIFIEGYCTPEEVI [MAGEA10] are 3.53 ± 0.9 and 2.63 ± 0.36.
For KTILGNAHDNSEELERARELKEKE [ANKRD44], in that order: 5.62 ± 0.16 and 5.51 ± 0.21.
Turning to KTKVPSNDNSSDLLYDDLYDDDID [UBE2R2], the protein stability index runs as follows: (treatment: DMSO) 5.28 ± 0.43; (treatment: MLN4924 1 uM, 8 h) 5.38 ± 0.36.
Turning to KTLQPTKQPNCSSLFKLKPLSNKT [PLD5], the protein stability index (treatment: DMSO) was found to be 3.08 ± 0.17 and the protein stability index (treatment: MLN4924 1 uM, 8 h) came to 3.09 ± 0.35.
For KTPPSSCDSTNAAIAKQALKKPIK [KMT5A], in that order: 5.11 ± 0.12 and 5.15 ± 0.3.
KTRQKSEKQMEEKRRANQKSSAQG [PPEF2]: the protein stability index runs as follows: (treatment: DMSO) 5.25 ± 0.27; (treatment: MLN4924 1 uM, 8 h) 5.3 ± 0.2.
Take KTVSLQIFSVLNSDDAAAPALETQ [SMOC2]: the protein stability index reads like this: (treatment: DMSO) 3.2 ± 0.59; (treatment: MLN4924 1 uM, 8 h) 3.56 ± 0.38.
For the sequence KVIVVMRSLFIDRTIVKGYNENVY [MED27], the protein stability index runs as follows: (treatment: DMSO) 2.77 ± 0.39; (treatment: MLN4924 1 uM, 8 h) 3.29 ± 0.33.
